Measurements from paper PMC8741920.

What was measured:
[1] = biological target: recombinant soluble human FcRn with β2-microglobulin (sFcRn) (human) (UniProt P55899); assay: SPR; pH 7.4
[2] = biological target: recombinant soluble human FcRn with β2-microglobulin (sFcRn) (human) (UniProt P55899); assay: SPR; pH 6.0

Sequence of UniProt P55899 (P55899 24-297, chain 1 of 2): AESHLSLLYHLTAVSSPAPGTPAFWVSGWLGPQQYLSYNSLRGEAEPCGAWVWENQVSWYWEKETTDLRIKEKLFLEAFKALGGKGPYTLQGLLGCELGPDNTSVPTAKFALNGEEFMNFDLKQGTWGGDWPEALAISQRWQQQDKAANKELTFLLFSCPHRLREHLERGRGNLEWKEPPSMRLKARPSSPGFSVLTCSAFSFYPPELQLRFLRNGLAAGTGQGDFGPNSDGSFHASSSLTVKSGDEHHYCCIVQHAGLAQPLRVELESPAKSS
Sequence of UniProt P55899 (partner, as listed by the source, chain 2 of 2): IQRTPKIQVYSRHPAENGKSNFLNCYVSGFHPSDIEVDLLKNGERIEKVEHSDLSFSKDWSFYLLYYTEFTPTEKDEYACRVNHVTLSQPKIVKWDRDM

Row | Substance | Kd [1] [nM] | Kd [2] [nM]
1 | anti-biotin IgG1-MST-HN (from UniProt P01857) | 893 | 8
2 | anti-biotin IgG1-WT (from UniProt P01857) | – | 59.3
